Results: the supplement of paper PMC9170038

Test system: MS2 coat protein
Experiment: apparent KD of MS2 coat protein; higher = weaker reporter binding
Settings: Eterna round: R107
Outline: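 Illumina sequencing clusters were used for on-chip transcription of designed RNA switches. Titration with SNAP-549-labelled MS2 coat protein followed, in twofold steps from 0.7 or 1.5 nM to 3 µM in 100 mM Tris-HCl pH 7.5, 80 mM KCl, 4 mM MgCl2, without or with constant ligand. Apparent KD is each design's median of fits to normalised cluster binding curves.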

[1] = input ligand: theophylline 20 uM
[2] = input ligand: theophylline 2 mM
[3] = input ligand: tryptophan 2.4 mM

Sequence	apparent KD of MS2 coat protein (input ligand: arginine 13.2 mM)	apparent KD of MS2 coat protein (input ligand: none)	apparent KD of MS2 coat protein [1]	apparent KD of MS2 coat protein [2]	apparent KD of MS2 coat protein [3]
AAAGUUGAUGAGUUGCGUUUGUGUUCCGAAGGAGCGAGAAUUAUCUCAGGUAGGUCGCGGAACAUGAGGAUCACCCAUGUAUAAA [XArg-A 19 NuV1&2 original #dotplot2>1]	35.3 nM	36.3 nM	46.2 nM	41.6 nM	34.3 nM
ACCGCAUCCGUAUAGGAUGCGGGCCAUGAAGGAGCGUGGGAAACCACAGGUAGGUCGCAUGGGUUACAUGAGGAUCACCCAUGUG [Jaws]	26.4 nM	166 nM	517 nM	585 nM	534 nM
GGAUAGGACACGGCCGCCACUACCUAGGAUACUAGAAACAUUUCCUCACAUGAGGAUCACCCAUGUAGGACCGGGUGUCCUAUCG	106 nM	–	284 nM	351 nM	–
GAUCUGUCGGGUGAUACCAGCCUCGGCGCGUCUCGCGCUGAACAUGAGGAUCACCCAUGUGGCCCUUGGCAGCACAUGACAAAUC [Ditere]	189 nM	–	488 nM	–	598 nM
UAUUAUCAGUCGGCCGCCACUGACACAUGAGGAUCACCCAUGUAAUUUGGGUUAUAUAUAAAUUACAGGACCGGGACAAAGGCUA [JR_ExcTryptoB_Sub013]	114 nM	–	318 nM	396 nM	–
AGUAGUUGACAAAAGUCAGCUACAACUGAAGGAGCGGGUGGGUGCCCAGGUAGGUCGCAGGAACAUGAGGAUCACCCAUGUAUAA [ArgAS 3 #BothOrNeither #OpenEnded]	35.9 nM	22.7 nM	40.3 nM	32.2 nM	18.5 nM
UGUGUAAUUGUCUGGUAGAUUUAUUUUUUUCGAGGACCGGUACGGCCGCCACUCGUUAUUUACAUGAGGAUCACCCAUGUUAGCU [JR_ExcTryptoA_Sub007]	12.4 nM	–	22.3 nM	15.5 nM	–
UCAAUAAUUAGAUUGUUACAUGUAUCAGAAGGAGCGUGAGUAAUCACAGGUAGGUCGCUGUUAACAUGAGGAUCACCCAUGUUUU [JR_ExcArginiA_Sub009]	31.2 nM	40.9 nM	43.6 nM	39.2 nM	36.8 nM
AUAACAUGAGGAUCACCCAUGUAAGCUGAAGGAGCGGACGAAAGUCCAGGUAGGUCGCAGCGCUCCUUCUGGUGAUCUGAAGGAG [(M1)-(M2)-(Arg1)-(Arg2)-(A)'-(M)'-(A)''_Design3]	103 nM	151 nM	154 nM	87.8 nM	138 nM
AACAUGAGGAUUGAUACCAGUCCAUGAGGAUCACAUGAGGAUCACCCAUGUGGAACAUGAGGCCCUUGGCAGCAGUACAACAUGA [Same State Theophylline B]	13.8 nM	–	17.2 nM	–	17.3 nM
AAGAGUUGACAAAAGUCAGCUCAAACCGAAGGAGCGGGAGAAAUCCCAGGUAGGUCGCGGUUACAUGAGGAUCACCCAUGUUCCU [ArgAS 6 #BothOrNeither #OpenEnded]	68.1 nM	355 nM	376 nM	300 nM	273 nM
AGAAUAACACAUGAGGAUCACCCAUGUGAUACCAGCUAGGAAACUAGCCCUUGGCAGCACAUAAUCCUCAUGAGCUGCCAUAAUA [(M1)-(M2)-(T1)-(T2)-(M)'-(T)'_Design2_2/19/17]	12 nM	–	19.2 nM	–	12.3 nM
GCCGGACUUUCGGCCGCCACUGAGAGAGUCGUGUGAACAUGAGGAUCACCCAUGUAAUAUAUAUACAGGACCGGGAGGGUCCGGC [4.T]	12.3 nM	12.1 nM	18.3 nM	12.7 nM	10.2 nM
AUACAUGAGGAUCACCCAUGUUACACUGAAGGAGCGACAUGUUUGUCAGGUAGGUCGCAGUGAAGUUUAAUAAAUAGUUGAUCUU [#07 Same State - Arginine A]	37.6 nM	57 nM	56.8 nM	62.6 nM	37 nM
UUGGUAGGACAGCUCAUAUAAGCAUGUGAUACCAGCUAGAAAACUAGCCCUUGGCAGCACUUUACAUGAGGAUCACCCAUGUCCC [EThA NP+V+V2 #2 +-Same Structure]	68.8 nM	–	258 nM	–	145 nM
AGCGACAUGCGUGAUACCAGCUACAUGAGGAUCACCCAUGUAAGUAGGAAACUACUGUGUAGCCCUUGGCAGCACAAUGCAUGUC [Exclusion - Theophylline B (Freestyle 24)]	20.3 nM	–	37.2 nM	–	20 nM
UGUAUGUGAUCUGAUACCAGUCCAACUGGUAAAGCACGAGGAUCACCCGUGUAAAAUUGGGACCCUUGGCAGCAGAUCGCAUACU	96.8 nM	228 nM	352 nM	57.8 nM	115 nM
ACAUGAGGAUCACCCAUGUACAUGAGGGAAGGAGCGGUACAUGAGCCAGGUAGGUCGCCCAUGAGCAUCAGCCAUGUACAUCAGC [vv,mmullin]	40.9 nM	115 nM	97.6 nM	101 nM	75.7 nM

Sequence	apparent KD of MS2 coat protein (input ligand: arginine 13.2 mM)	apparent KD of MS2 coat protein (input ligand: none)	apparent KD of MS2 coat protein [1]	apparent KD of MS2 coat protein [2]	apparent KD of MS2 coat protein [3]
CGCCACUCGAGUGAUCCUCACGAGUGGCUACGAGGACCGGUACGGCCGCCACUCGAAUUAACAUGAGGAUCACCCAUGUAAUCUA [Brourdmod08]	30 nM	–	200 nM	322 nM	–
CGUGAUACUGGUAUACUCUGAAGAUCAAUUCGAGGACCGGUACGGCCGCCACUCGUUAGUAGACAUGAGGAUCACCCAUGUUAGU [theeternabot_exclusion_MS2_Trp_A_48]	11.8 nM	–	20.6 nM	17.7 nM	–
AGGAAGACGAUGGAUACCAGACAACCAGGGAACAUGAGGAUCACCCAUGUGAUUGAAAGGGUCCCUUGGCAGCCAGAAGCCGUUG [theeternabot_sameState_MS2_Theo_B_31]	68.5 nM	–	173 nM	–	130 nM
ACAAGAGGGAUGGAUACCAGCGACAUGAGGAUCACCCAUGUAUGAGGAUCAGCCAUGUUAUGCCCUUGGCAGCCACGAAGAUCAG [XXXMULLIN]	27.1 nM	25.1 nM	32.8 nM	104 nM	21.6 nM
AUACAUGAGGAUCACCCAUGUCAUUCAGAAGGAGCGUCAUUUUAGACAGGUAGGUCGCUGAUAUUAUCUUUAUACUUUAUGUUUA [JR_ExcArginiA_Sub023]	19.1 nM	18.3 nM	27.3 nM	18.2 nM	19.9 nM
GGGUAAGAUCCGGAUACCAGCGAACAUGAGGAUCACCCAUGUGAAAUAAGAUAGAAUAAACGCCCUUGGCAGCCGAAAUAGAGUU [Same State Theophylline B GF 3]	41.3 nM	–	81.9 nM	–	88.9 nM
AGAGUUAGACAAAAGUCUAGCUCACCAGAAGGAGCGUCCGAAAGGACAGGUAGGUCGCUGGUACAUGAGCAUCAGCCAUGUUCCU [ArgAS 15 #OpenEnded #AlternativeMS2]	18.1 nM	23.7 nM	28 nM	28.5 nM	24.1 nM
GAACAAGGUUUCUUGUUCGGUCGCUGAGAAGGAGCGCGGUAACCCGCAGGUAGGUCGCUCAGAAAUACAUGAGGAUCACCCAUGU [Anaa]	17.4 nM	18.7 nM	26.4 nM	21.7 nM	17.8 nM
ACACGGCAUGAUGGAUCACCUCGUGAAUCACGAGGACCGGUACGGCCGCCACUCGAAAACCGUGACCUGUACGAAAAGUGCAGGA	36 nM	53 nM	254 nM	758 nM	38.8 nM
AUUCAUAACUGAAGGAGCGUGAUAUAAAUUUUUACAUGAGGAUCACCCAUGUUUCAUCGAUCACAGGUAGGUCGCAGAUUCUCAU [JR_SSArginiB_Sub012]	31.1 nM	55.3 nM	59.1 nM	45.1 nM	37.9 nM
CCGGAGACCUCGGCCGCCACUCUCCAUGAGGAUCUCCCAUGUAACAUGAGGAUCACCCAUGUGCUGAGGACCGGGAGGUCCUCCU [Same State Tryptophan B GF 20]	18.7 nM	13.2 nM	16.4 nM	17 nM	20.9 nM
GUGACUUACGGGCGCCAUUUGUGAUAGGAAGGAGCGGCGAAAUAGCCAGGUAGGUCGCCUAUACAUGAGGAUCACCCAUGUCACC [Veveatonus]	45.1 nM	105 nM	64.9 nM	84.6 nM	72.6 nM
GUAAGACAUGAGGAUCACCCAUGUGUCGAUACCAGCCCUGCCUCUGGCCCUUGGCAGCGACUCGCACACCUCGCACUGCACAAGU [theeternabot_sameState_MS2_Theo_A_13]	42.6 nM	–	59.5 nM	–	49 nM
GUAUAUUGAAAACAAUAUACAGUGGGUGAACGAGGACCGGUACGGCCGCCACUCGGACAUGAGGAUCACCCAUGUCCAUGUGAAA [AstrosExyTryA#8]	15.1 nM	–	17.1 nM	17.7 nM	–
UAUUAUCAGUCGGCCGCCACUGUCACAUGAGGAUCACCCAUGUAACUUGGGUUAUAUUUAAUAUACAGGACCGGGACAAAGGCUA [JR_ExcTryptoB_Sub012]	61.5 nM	–	76.6 nM	66.8 nM	–
GACCUUGCGGGCGCCCGCAAGGUCGCGGAUACCAGCGAGGUCCAUCGCCCUUGGCAGCCGAACAUGAGGAUCACCCAUGUCGGUU [Same State - Theophylline A Attempt #5 (HarryS)]	8.39 nM	–	12.8 nM	–	11 nM
ACACAAUACAUGAGGAUCACCCAUGUAUAACGAGGACCGGUACGGCCGCCACUCGAAUACUGUAAUCCUCGGAAUAUUAUGUGAA [JR_ExcTryptA_Sub003]	32.9 nM	–	56.7 nM	60.5 nM	–
